According to article PMC5220579 (Molecular immunology, 2016):

Tests used:
[1] = target: T1, IgV domain of human nectin-2 (human, UniProt Q92692 32-158); assay: SPR
T1 sequence: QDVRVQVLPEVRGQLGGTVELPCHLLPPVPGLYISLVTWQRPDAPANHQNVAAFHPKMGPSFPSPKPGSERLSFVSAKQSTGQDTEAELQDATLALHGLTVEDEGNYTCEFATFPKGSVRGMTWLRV

[2] = target: T2, human PVR (poliovirus receptor) (human, UniProt P15151 21-343); assay: SPR
T2 sequence (looked up): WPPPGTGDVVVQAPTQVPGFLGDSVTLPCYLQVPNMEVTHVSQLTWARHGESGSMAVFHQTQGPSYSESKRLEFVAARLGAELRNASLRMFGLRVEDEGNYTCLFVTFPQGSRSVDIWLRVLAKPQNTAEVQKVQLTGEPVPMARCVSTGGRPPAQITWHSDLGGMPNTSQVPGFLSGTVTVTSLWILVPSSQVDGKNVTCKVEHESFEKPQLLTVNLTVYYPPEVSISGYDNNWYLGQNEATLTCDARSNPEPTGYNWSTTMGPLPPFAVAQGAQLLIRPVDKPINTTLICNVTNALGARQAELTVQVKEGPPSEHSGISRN

Kd [1]: 11.5 ± 1.1 µM
Kd [2]: 0.36 ± 0.025 µM
B1: IgV domain of human TIGIT (residues 22 to 137) (domain or fragment, UniProt Q495A1 22-137, looked up)
chain: MMTGTIETTGNISAEKGGSIILQCHLSSTTAQVTQVNWEQQDQLLAICNADLGWHISPSFKDRVAPGPGLGLTLQSLTVNDTGEYFCIYHTYPDGTYTGRIFLEVLESSVAEHGAR
